Experimental data reported in patent publication EP4713370A2 (dated 2026).

T1: CD79b on target B cell lines (Ramos (CD79b+) cells; Daudi cells) (UniProt P40259 29-229, limits assumed)
T1 construct: whole, on cells; On cells CD79b stands in the B cell receptor complex with CD79a; also called Ramos (CD79+) cells; CD79b expression cells
T1 sequence (looked up): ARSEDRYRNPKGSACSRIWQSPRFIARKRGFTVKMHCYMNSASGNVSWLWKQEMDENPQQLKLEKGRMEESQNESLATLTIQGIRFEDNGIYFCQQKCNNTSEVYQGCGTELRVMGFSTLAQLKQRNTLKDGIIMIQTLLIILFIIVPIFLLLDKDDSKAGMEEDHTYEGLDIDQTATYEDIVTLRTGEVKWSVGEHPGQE


Key:
[1] = molecular target: T1, CD79b on target B cell lines (Ramos …); test: flow cytometry on Ramos cells, anti-human IgG Fc PE
[2] = molecular target: T2, human NKp46 expressed on cells (primary human NK cells; CHOK1-hNKp46 cells) (human, UniProt O76036 22-304); test: flow cytometry on CHOK1-hNKp46 cells, anti-human IgG Fc PE
T2 construct: whole, on cells; also called cell surface expressed NKp46; NCR1

[3] = molecular target: T2, human NKp46 expressed on cells (primary …); test: flow cytometry on purified CD56+ human NK cells, anti-human IgG PE
[4] = molecular target: T1, CD79b on target B cell lines (Ramos …); test: flow cytometry on Ramos cells, anti-human IgG PE

T2 sequence (O76036 22-304): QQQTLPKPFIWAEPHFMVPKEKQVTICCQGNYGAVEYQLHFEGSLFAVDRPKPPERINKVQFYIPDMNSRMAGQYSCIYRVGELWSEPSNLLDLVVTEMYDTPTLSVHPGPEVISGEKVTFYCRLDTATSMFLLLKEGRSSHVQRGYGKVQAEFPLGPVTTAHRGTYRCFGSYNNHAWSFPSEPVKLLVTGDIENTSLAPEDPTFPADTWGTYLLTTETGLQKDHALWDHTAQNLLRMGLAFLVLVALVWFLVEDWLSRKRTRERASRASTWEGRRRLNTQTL

Binder	binding result [1]	binding result [2]	binding result [3]	binding result [4]
h44G2/h6-1 (LC) Fc-optimized (bispecific antibody, human IgG1, kappa, LC format, optimized Fc; also called humanized CD79b/NKp46 bispecific antibody; humanized NK cell engager) heavy: EQQLVETGGGLIQPGGSLRLSCAASGFTINIDYWISWVRQAPGKGLEWIGIIDPGDGTTYFAIWVSGRFTISFDNSKNTVYLQMNSLRAEDTAVYFCVREFSASAYQYDLWGPGTLVTVSSASTKGPSVFPLAPSSKSTSGGTAALGCLVKDYFPEPVTVSWNSGALTSGVHTFPAVLQSSGLYSLSSVVTVPSSSLGTQTYICNVNHKPSNTKVDKKVEPKSCDKTHTCPPCPAPELLAGPSVFLFPPKPKDTLMISRTPEVTCVVVDVSHEDPEVKFNWYVDGVEVHNAKTKPREEQYNSTYRVVSVLTVLHQDWLNGKEYKCKVSNKALPLPEEKTISKAKGQPREPQVYTLPPSRDELTKNQVSLTCLVKGFYPSDIAVEWESNGQPENNYKTTPPVLDSDGSFFLYSKLTVDKSRWQQGNVFSCSVMHEALHNHYTQKSLSLSPGK light: ELVMTQSPATLSVSPGERATLSCRASEDIENYLAWYQQKPGQPPRLLIYRASTLSSGVPARFSGSGSGTEFTLTISSLQSEDFAVYYCQQGYRNSNVDNPFGGGTKVEIKRTVAAPSVFIFPPSDEQLKSGTASVVCLLNNFYPREAKVQWKVDNALQSGNSQESVTEQDSKDSTYSLSSTLTLSKADYEKHKVYACEVTHQGLSSPVTKSFNRGECGGGGSGGGGSGGGGSDVQMTQSPSTLSASVGDRVTITCQASENIYSSLAWYQQKPGKPPKLLMYDVSDLASGVPSRFSGSGSGTEFTLTISSLQPDDFATYFCLGGYPSNNYRMAFGCGTKVEIKGGGGSGGGGSGGGGSGGGGSEQQLLESGGGLVQPGGSLRLSCAASGFSFSSSAWIVWVRQAPGKCLEWIGVINTVSVNAYYASWAKGRFTISKDSSKNTVYLQMNSLRAEDTAVYFCARNPYNSLRLWGPGTLVTVSS	binds	binds		
ch44G2/ch3-7 Fc-silenced (bispecific antibody, human IgG1, kappa, L234A L235A, LC format: the NKp46 scFv (VL-GS-VH) is joined to the C terminus of the anti-CD79b light chain, with LALAPG silenced Fc; also called CD79b/NKp46 bispecific antibody; 44G2/3-7) heavy: not shown light: DLVMTQTPSSVSAAVGGTVSINCRASEDIENYLAWYQQKPGQPPKLLIYRASTLSSGVSSRFSGSGSGTEFTLTISGVQPDDAATYYCQQGYRNSNVDNPFGGGTEMVVKRTVAAPSVFIFPPSDEQLKSGTASVVCLLNNFYPREAKVQWKVDNALQSGNSQESVTEQDSKDSTYSLSSTLTLSKADYEKHKVYACEVTHQGLSSPVTKSFNRGECGGGGSGGGGSGGGGSGGGGSAFELTQTPSSVEAAVGGTVTINCQASQDIYIYLAWYQQKPGQPPKLLIYSASTLASGVSSRFTGSRSGTQFTLTISDLEPADAATYYCQSYDGTSNTGFGGGTEVVVRGGGGSGGGGSGGGGSGGGGSQSLEESGGRLVTPGTPLTLTCTVSGFSPSSYYMSWVRQAPGKGLEYIGIIFSGGSTWYASWAKGRVTISRTSTTVDLKMTSLTTEDTATYFCARGDAVGSGYWGLWGPGTLVTVSS			binds	binds
ch44G2/ch6-1 (LC) Fc-optimized (bispecific antibody, human IgG1, kappa, LC format: the NKp46 scFv stands at the C terminus of the anti-CD79b light chain, with optimized Fc (G236A, A330L, I332E, EU numbering); also called chimeric CD79b/NKp46 bispecific antibody; NK cell engager) heavy: QSVRETGGGLVQPGGSLKLSCKASGFTINIDYWISWVRQAPGKGLEWIGIIDPGDGTTYFAIWVNGRFTISFDNTQNTVDLQMNSLTAADTATYFCVREFSASAYQYDLWGPGTLVTVSSASTKGPSVFPLAPSSKSTSGGTAALGCLVKDYFPEPVTVSWNSGALTSGVHTFPAVLQSSGLYSLSSVVTVPSSSLGTQTYICNVNHKPSNTKVDKRVEPKSCDKTHTCPPCPAPELLAGPSVFLFPPKPKDTLMISRTPEVTCVVVDVSHEDPEVKFNWYVDGVEVHNAKTKPREEQYNSTYRVVSVLTVLHQDWLNGKEYKCKVSNKALPLPEEKTISKAKGQPREPQVYTLPPSRDELTKNQVSLTCLVKGFYPSDIAVEWESNGQPENNYKTTPPVLDSDGSFFLYSKLTVDKSRWQQGNVFSCSVMHEALHNHYTQKSLSLSPGK light: DLVMTQTPSSVSAAVGGTVSINCRASEDIENYLAWYQQKPGQPPKLLIYRASTLSSGVSSRFSGSGSGTEFTLTISGVQPDDAATYYCQQGYRNSNVDNPFGGGTEMVVKRTVAAPSVFIFPPSDEQLKSGTASVVCLLNNFYPREAKVQWKVDNALQSGNSQESVTEQDSKDSTYSLSSTLTLSKADYEKHKVYACEVTHQGLSSPVTKSFNRGECGGGGSGGGGSGGGGSGGGGSADVVMTQTPASVSEPVGGTITINCQASENIYSSLAWYQQKPGQPPKLLMYDVSDLASGVPSRFSGSGSGTEFALTISDVQPDDAATYFCLGGYPSNNYRMAFGGGTEVVVKGGGGSGGGGSGGGGSGGGGSQSLEESGGGLVQPEGSLTLTCTASGFSFSSSAWICWVRQAPGKGLEWIGCINTVSVNAYYASWAKGRFTISKTSSTTVTLQVTSLTAADTATHFCARNPYNSLRLWGPGTLVTVSS	binds	binds		
h44G2/h6-1 (HC) Fc-optimized (bispecific antibody, human IgG1, kappa, HC format, optimized Fc; also called humanized CD79b/NKp46 bispecific antibody; humanized NK cell engager) heavy: EQQLVETGGGLIQPGGSLRLSCAASGFTINIDYWISWVRQAPGKGLEWIGIIDPGDGTTYFAIWVSGRFTISFDNSKNTVYLQMNSLRAEDTAVYFCVREFSASAYQYDLWGPGTLVTVSSASTKGPSVFPLAPSSKSTSGGTAALGCLVKDYFPEPVTVSWNSGALTSGVHTFPAVLQSSGLYSLSSVVTVPSSSLGTQTYICNVNHKPSNTKVDKKVEPKSCDKTHTCPPCPAPELLAGPSVFLFPPKPKDTLMISRTPEVTCVVVDVSHEDPEVKFNWYVDGVEVHNAKTKPREEQYNSTYRVVSVLTVLHQDWLNGKEYKCKVSNKALPLPEEKTISKAKGQPREPQVYTLPPSRDELTKNQVSLTCLVKGFYPSDIAVEWESNGQPENNYKTTPPVLDSDGSFFLYSKLTVDKSRWQQGNVFSCSVMHEALHNHYTQKSLSLSPGGGGGSGGGGSGGGGSDVQMTQSPSTLSASVGDRVTITCQASENIYSSLAWYQQKPGKPPKLLMYDVSDLASGVPSRFSGSGSGTEFTLTISSLQPDDFATYFCLGGYPSNNYRMAFGCGTKVEIKGGGGSGGGGSGGGGSGGGGSEQQLLESGGGLVQPGGSLRLSCAASGFSFSSSAWIVWVRQAPGKCLEWIGVINTVSVNAYYASWAKGRFTISKDSSKNTVYLQMNSLRAEDTAVYFCARNPYNSLRLWGPGTLVTVSS light: ELVMTQSPATLSVSPGERATLSCRASEDIENYLAWYQQKPGQPPRLLIYRASTLSSGVPARFSGSGSGTEFTLTISSLQSEDFAVYYCQQGYRNSNVDNPFGGGTKVEIKRTVAAPSVFIFPPSDEQLKSGTASVVCLLNNFYPREAKVQWKVDNALQSGNSQESVTEQDSKDSTYSLSSTLTLSKADYEKHKVYACEVTHQGLSSPVTKSFNRGEC	binds	binds		
ch44G2/ch6-1 (HC) Fc-optimized (bispecific antibody, human IgG1, kappa, HC format: the NKp46 scFv stands at the C terminus of the heavy chain Fc, with optimized Fc; also called chimeric CD79b/NKp46 bispecific antibody; NK cell engager) heavy: QSVRETGGGLVQPGGSLKLSCKASGFTINIDYWISWVRQAPGKGLEWIGIIDPGDGTTYFAIWVNGRFTISFDNTQNTVDLQMNSLTAADTATYFCVREFSASAYQYDLWGPGTLVTVSSASTKGPSVFPLAPSSKSTSGGTAALGCLVKDYFPEPVTVSWNSGALTSGVHTFPAVLQSSGLYSLSSVVTVPSSSLGTQTYICNVNHKPSNTKVDKRVEPKSCDKTHTCPPCPAPELLAGPSVFLFPPKPKDTLMISRTPEVTCVVVDVSHEDPEVKFNWYVDGVEVHNAKTKPREEQYNSTYRVVSVLTVLHQDWLNGKEYKCKVSNKALPLPEEKTISKAKGQPREPQVYTLPPSRDELTKNQVSLTCLVKGFYPSDIAVEWESNGQPENNYKTTPPVLDSDGSFFLYSKLTVDKSRWQQGNVFSCSVMHEALHNHYTQKSLSLSPGKGGGGSGGGGSGGGGSADVVMTQTPASVSEPVGGTITINCQASENIYSSLAWYQQKPGQPPKLLMYDVSDLASGVPSRFSGSGSGTEFALTISDVQPDDAATYFCLGGYPSNNYRMAFGGGTEVVVKGGGGSGGGGSGGGGSGGGGSQSLEESGGGLVQPEGSLTLTCTASGFSFSSSAWICWVRQAPGKGLEWIGCINTVSVNAYYASWAKGRFTISKTSSTTVTLQVTSLTAADTATHFCARNPYNSLRLWGPGTLVTVSS light: DLVMTQTPSSVSAAVGGTVSINCRASEDIENYLAWYQQKPGQPPKLLIYRASTLSSGVSSRFSGSGSGTEFTLTISGVQPDDAATYYCQQGYRNSNVDNPFGGGTEMVVKRTVAAPSVFIFPPSDEQLKSGTASVVCLLNNFYPREAKVQWKVDNALQSGNSQESVTEQDSKDSTYSLSSTLTLSKADYEKHKVYACEVTHQGLSSPVTKSFNRGEC	binds	binds		
